Assay [1] has as its target mix of 3 carriers alone (BSA + OVA + KLH) (bovine; keyhole limpet) (UniProt P02769). Briefly: monoclonal phage ELISA, negative control coating with carriers alone, replicate 1.
Assay [2] has the same target. Put plainly: monoclonal phage ELISA, negative control coating with carriers alone, replicate 2.

mix of 3 carriers alone (BSA + OVA + KLH) (bovine; keyhole limpet), sequence (P02769 25-607, chain 1 of 2): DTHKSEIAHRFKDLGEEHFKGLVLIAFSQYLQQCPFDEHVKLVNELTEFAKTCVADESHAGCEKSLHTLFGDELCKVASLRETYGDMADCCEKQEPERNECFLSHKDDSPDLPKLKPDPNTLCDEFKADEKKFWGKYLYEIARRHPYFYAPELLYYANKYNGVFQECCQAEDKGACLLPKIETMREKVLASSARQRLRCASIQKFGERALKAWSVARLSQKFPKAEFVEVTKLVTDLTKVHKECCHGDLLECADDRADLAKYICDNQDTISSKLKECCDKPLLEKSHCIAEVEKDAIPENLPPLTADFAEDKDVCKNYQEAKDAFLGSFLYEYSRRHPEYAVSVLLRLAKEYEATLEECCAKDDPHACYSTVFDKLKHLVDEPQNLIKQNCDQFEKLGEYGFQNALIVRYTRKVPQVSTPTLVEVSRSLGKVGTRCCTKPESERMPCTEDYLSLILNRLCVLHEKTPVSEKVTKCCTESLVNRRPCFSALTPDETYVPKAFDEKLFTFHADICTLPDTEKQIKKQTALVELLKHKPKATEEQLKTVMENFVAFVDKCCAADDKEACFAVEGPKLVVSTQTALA
mix of 3 carriers alone (BSA + OVA + KLH) (bovine; keyhole limpet), sequence (P01012 2-386, chain 2 of 2, further chain): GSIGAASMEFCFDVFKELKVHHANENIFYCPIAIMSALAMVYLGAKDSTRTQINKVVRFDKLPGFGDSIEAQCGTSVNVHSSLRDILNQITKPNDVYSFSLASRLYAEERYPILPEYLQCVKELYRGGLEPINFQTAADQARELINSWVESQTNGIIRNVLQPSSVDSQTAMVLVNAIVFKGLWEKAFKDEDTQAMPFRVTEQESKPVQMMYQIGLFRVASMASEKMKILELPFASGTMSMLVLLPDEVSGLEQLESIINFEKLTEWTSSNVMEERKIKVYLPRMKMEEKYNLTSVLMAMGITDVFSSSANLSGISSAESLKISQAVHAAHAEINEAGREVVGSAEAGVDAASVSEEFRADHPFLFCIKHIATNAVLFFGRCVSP

B1: R4P1-C1 (phage Fab clone) (Fab, V domains shown)
VH: QVQLQQSGPGLVKPSQTLSLTCAISGDSVSSNSAAWNWIRQSPSRGLEWLGRTYYRSKWYNDYAVSVKSRITINPDTSKNQFSLQLNSVTPEDTAVYYCARDDYDPVGMYAFDIWGQGTLVTVSS
VL: LPVLTQPPSASGTPGQRVTISCSGSSSNIGSNTVNWYQQLPGTAPKLLIYRNTQRPSGVPDRFSGSKSGTSASLAISGLQSEDEADYYCEAWDDSMRGAAFGGGTQLTVL
Take B1: the ELISA signal in assay [1] and in assay [2] was 0.06 each time.

The values above are taken from US12590147.
